Where no end group is shown, it is not given here. [ ]: non-standard residue; d: D form. Cit = NC(=O)NCCC[C@H](N)C(=O)O
Target: HLA-DRB1*04:05 protein (human)
Assay: FP

B1: TNC1014,1016cit peptide (peptide)
peptide: D[Cit]Y[Cit]LNYSLPTG
B1 showed an IC50 of 4.81 µM.

From publication PMC12269843 (2025)
